# The supplement of paper PMC9732359
# ± gives the uncertainty stated by the source.
# Assay: protein stability index of a GFP-peptide fusion (yeast GPS) (PSI 1-4); higher = more stable; sorted into four equal gates, so the index is relative within each strain
# How it was run: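 The protein stability index of a peptide was calculated by multiplying its read frequency in each gate by that gate's number and adding the products. The peptides were tiled 17-residue stretches of yeast proteins, fused downstream of GFP on a Cherry-expressing plasmid and carried in yeast as a pooled library. Mid-log cultures in leucine-free medium were sorted into four equal gates by GFP/Cherry ratio, and each gate's plasmids were PCR-amplified and Illumina-sequenced.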
Sequence,protein stability index (doa10∆),protein stability index (pdr5∆),protein stability index (san1∆),protein stability index (ubr1∆)
GFSMNNPYNIVPQGKIV [SMC3],3.05 ± 0.11,2.93 ± 0.071,3.08 ± 0.085,3.09 ± 0.062
NGKIWVKCEELSNTLAC [RRP40],3.29 ± 0.12,3.24 ± 0.13,3.26 ± 0.067,3.6 ± 0.16
NQQQQNQQPQQQQQQQQ [SWI1],3.06 ± 0.049,2.93 ± 0.037,2.88 ± 0.03,2.83 ± 0.032
DIEQLEYSRDCFCEDHC [RPB3],3.1 ± 0.064,2.54 ± 0.052,2.92 ± 0.066,2.61 ± 0.065
DIEEGPITSKSWEEGTR [MCD1],,2.92 ± 0.19,2.99 ± 0.15,
YDLVDNKGAKAEDVALN [NAS6],2.8 ± 0.14,3.39 ± 0.27,2.87 ± 0.12,3.07 ± 0.071
TSILELGQLYVTMGAKD [RPN6],3.23 ± 0.11,2.85 ± 0.083,2.96 ± 0.071,2.96 ± 0.059
MSTKAQNPMRDLKIEKL [RPL11B],3.36 ± 0.16,3.25 ± 0.11,3.46 ± 0.11,3.6 ± 0.23
HFELGGEKKQKGQALQF [RPL42A],2.72 ± 0.17,2.88 ± 0.1,2.46 ± 0.094,2.76 ± 0.13
LQYIIHDTLNNEIANSI [BRR2],2.67 ± 0.057,2.69 ± 0.076,2.86 ± 0.077,2.76 ± 0.056
MKYTQYPNSSKLKRNSD [LIN1],3.17 ± 0.089,3.03 ± 0.079,2.99 ± 0.05,3.14 ± 0.094
RREELQQRIREIGLLPE [SMC3],3.34 ± 0.12,3.06 ± 0.2,3.21 ± 0.075,3.45 ± 0.066
LINDSYINDVHLLYPPH [SSN8],3.29 ± 0.058,3.14 ± 0.057,2.96 ± 0.045,3.25 ± 0.053
ELENNEFTENELNVDSM [ITC1],3.38 ± 0.07,3.21 ± 0.073,3.33 ± 0.065,3.27 ± 0.069
VAARMFHILLKLILEWV [ECM29],1.42 ± 0.17,1.64 ± 0.12,1.91 ± 0.12,2.1 ± 0.094
KKSQCKKKTTLEDFENF [YIL149C/MLP2],2.87 ± 0.053,3.04 ± 0.051,3.08 ± 0.04,3.14 ± 0.048
NGNLTSNQLISNYAASN [SWI1],3.13 ± 0.12,2.89 ± 0.1,2.98 ± 0.11,3.1 ± 0.055
NNNPLQQQSSQNTVPNV [GAL11],2.65 ± 0.046,2.86 ± 0.041,3 ± 0.033,2.82 ± 0.03
GNSESKVEKGVNIEPFN [LIN1],3.7 ± 0.13,3.67 ± 0.17,3.46 ± 0.08,3.13 ± 0.079
CLMRSLHKLELKAKNQE [DSN1],1.21 ± 0.06,1.31 ± 0.067,1.19 ± 0.16,1.16 ± 0.051
DDVTCDKLSVSEISDGK [SIN4],2.97 ± 0.073,3.11 ± 0.078,2.81 ± 0.08,3.29 ± 0.058
DALKVVLRTALVHDGLA [RPS12],2.5 ± 0.17,2.51 ± 0.14,2.72 ± 0.098,3.25 ± 0.1
KSRPDRPKPVSPPCYII [SNF5],2.93 ± 0.063,3.08 ± 0.057,2.98 ± 0.069,2.95 ± 0.041
GTSLKVAPVSEIVNMVP [SIR2],2.24 ± 0.089,2.65 ± 0.089,2.7 ± 0.069,2.37 ± 0.058
VDKIFEKVNNNATLTPN [SWI1],3.09 ± 0.079,3.08 ± 0.073,3.22 ± 0.069,3.15 ± 0.051
ESSKLMTVTKVSLPEGS [BRR2],2.93 ± 0.22,2.33 ± 0.11,3.19 ± 0.1,2.63 ± 0.073
